Drawing on paper PMC2814163 (Biochemistry, 2010), this text covers Kd for one molecule.

The test has as its target soluble form of the cation-independent mannose 6-phosphate receptor isolated from fetal bovine serum (bovine, UniProt P08169 45-2313). The experiment in a line: SPR.

B1: human β-glucuronidase (enzyme, UniProt P08236 23-651, looked up)
chain: LQGGMLYPQESPSRECKELDGLWSFRADFSDNRRRGFEEQWYRRPLWESGPTVDMPVPSSFNDISQDWRLRHFVGWVWYEREVILPERWTQDLRTRVVLRIGSAHSYAIVWVNGVDTLEHEGGYLPFEADISNLVQVGPLPSRLRITIAINNTLTPTTLPPGTIQYLTDTSKYPKGYFVQNTYFDFFNYAGLQRSVLLYTTPTTYIDDITVTTSVEQDSGLVNYQISVKGSNLFKLEVRLLDAENKVVANGTGTQGQLKVPGVSLWWPYLMHERPAYLYSLEVQLTAQTSLGPVSDFYTLPVGIRTVAVTKSQFLINGKPFYFHGVNKHEDADIRGKGFDWPLLVKDFNLLRWLGANAFRTSHYPYAEEVMQMCDRYGIVVIDECPGVGLALPQFFNNVSLHHHMQVMEEVVRRDKNHPAVVMWSVANEPASHLESAGYYLKMVIAHTKSLDPSRPVTFVSNSNYAADKGAPYVDVICLNSYYSWYHDYGHLELIQLQLATQFENWYKKYQKPIIQSEYGAETIAGFHQDPPLMFTEEYQKSLLEQYHLGLDQKRRKYVVGELIWNFADFMTEQSPTRVLGNKKGIFTRQRQPKSAAFLLRERYWKIANETRYPHSVAKSQCLENSLFT
modifications: mannose 6-phosphate on its glycans (Man-6-P-containing lysosomal enzyme; nonphosphorylated enzyme removed)
B1: the Kd worked out at 22 ± 3 nM.
